# Data taken from US7968091 (GENERAL HOSPITAL, dated 2011).
# B1: ALK5.Fc (a TGF-β type I receptor, R & D Systems) (Fc fusion, UniProt P36897 34-125, looked up)
# chain: LQCFCHLCTKDNFTCVTDGLCFVSVTETTDKVIHNSMCIAEIDLIPRDRPFVCAPSSKTGSVTTTYCCNQDHCNKIELPTTVKSSPGLGPVE
# notes: Bought fusion protein, negative control; not shown: Fc part of the bought fusion protein; not described
# Molecular target: T1, human BMP-2 ligand (carrier-free, R & D Systems), used 125I-labeled and as cold competitor (human, UniProt P12643 283-396, iodinated with [125I] by the modified chloramine-T method (labeled form))
# T1 construct: Bought recombinant ligand
# T1 sequence (P12643 283-396 limits assumed): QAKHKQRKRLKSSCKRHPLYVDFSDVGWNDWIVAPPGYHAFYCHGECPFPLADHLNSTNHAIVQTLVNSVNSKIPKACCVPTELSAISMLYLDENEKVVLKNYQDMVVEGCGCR
# Experiment: DSS chemical crosslinking with 125I-BMP-2, Protein A pull-down, SDS-PAGE, autoradiography
# Method: Ligand iodination and crosslinking. […] This mixture was incubated in the absence or presence of […] disuccinimidyl suberate (DSS, Sigma, St. Louis, Mo.) followed by incubated with Protein A Sepharose beads (Amersham) as previously described (J. L. Babitt et al., J. Biol. Chem., 2005, 280: 29820-29827). Beads were washed with phosphate buffered saline (PBS) and protein eluted by non-reducing Laemmli sample buffer (Bio-Rad). Eluted protein was separated by SDS-PAGE and analyzed by autoradiography.
binder,measurement,value
B1,binding result,no binding (tested: 60 ng ALK5.Fc)
